Laboratory results taken from doi:10.1101/723213.

How the values were obtained:
[1] = target: CENP-A_(101-225)–H4 heterodimer (Drosophila melanogaster), Q9V6Q2; assay: SEC-MALS; details: remark: other sources report otherwise
[2] = target: CENP-A_(144-225)–H4 heterodimer (Drosophila melanogaster), Q9V6Q2; assay: SEC-MALS; details: remark: other sources report otherwise
CENP-A_(144-225)–H4 heterodimer (Drosophila melanogaster), Q9V6Q2, sequence (Q9V6Q2 144-225, one chain of several): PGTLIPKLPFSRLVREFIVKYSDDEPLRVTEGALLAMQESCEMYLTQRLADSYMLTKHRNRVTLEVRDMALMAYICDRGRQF

CENP-A_(101-225)–H4 heterodimer (Drosophila melanogaster), Q9V6Q2, sequence (Q9V6Q2 101-225, one chain of several): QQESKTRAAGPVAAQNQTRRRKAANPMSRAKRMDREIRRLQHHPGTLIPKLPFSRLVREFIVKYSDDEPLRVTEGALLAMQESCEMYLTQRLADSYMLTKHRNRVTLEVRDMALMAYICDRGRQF

B1: His-CAL1_(1-160), Q9VEN2 1-160 (domain or fragment)
chain: MANAVVDEETLEAMVYERSKAWSSKMADFASLEDGMEIDVAEFDNLFHGEDEDPDLDDVAKEAVEDNVPDEAKLEMGHINATSVTELTLILCANEDNEAKAEIEEILNQTVPVVEEHKRKWREAGLDRILDTFDEKQIEHHVGRWMRRHNSVYLEASPPK
B1 was tested, and the stoichiometry N (CAL1 per CENP-A/H4 heterodimer) [1] was 1 and the stoichiometry N (CAL1 per CENP-A/H4 heterodimer) [2] was 1.
